From publication doi:10.1101/2022.07.11.499617, “Direct attenuation of Arabidopsis ERECTA signaling by a pair of U-box E3 ligases” (bioRxiv, 2022)
Read-outs that look alike come from different tables or passages of the source.

T1: GST-PUB31 (Arabidopsis thaliana, UniProt Q9FHN9 1-444)
T1 chain: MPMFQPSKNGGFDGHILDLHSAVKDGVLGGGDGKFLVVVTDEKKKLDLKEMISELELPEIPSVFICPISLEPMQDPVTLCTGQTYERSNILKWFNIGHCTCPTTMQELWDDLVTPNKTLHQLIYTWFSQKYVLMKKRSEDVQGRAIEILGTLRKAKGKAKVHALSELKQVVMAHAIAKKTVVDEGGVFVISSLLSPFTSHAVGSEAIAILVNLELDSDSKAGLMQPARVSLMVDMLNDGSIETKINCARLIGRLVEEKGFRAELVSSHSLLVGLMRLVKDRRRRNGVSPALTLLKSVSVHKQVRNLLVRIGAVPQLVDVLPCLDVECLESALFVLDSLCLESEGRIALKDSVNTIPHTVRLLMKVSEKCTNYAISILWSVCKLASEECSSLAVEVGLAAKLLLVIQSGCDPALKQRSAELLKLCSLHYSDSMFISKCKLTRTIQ

T2: GST-PUB30 (Arabidopsis thaliana, UniProt Q058P4 1-448)
T2 chain: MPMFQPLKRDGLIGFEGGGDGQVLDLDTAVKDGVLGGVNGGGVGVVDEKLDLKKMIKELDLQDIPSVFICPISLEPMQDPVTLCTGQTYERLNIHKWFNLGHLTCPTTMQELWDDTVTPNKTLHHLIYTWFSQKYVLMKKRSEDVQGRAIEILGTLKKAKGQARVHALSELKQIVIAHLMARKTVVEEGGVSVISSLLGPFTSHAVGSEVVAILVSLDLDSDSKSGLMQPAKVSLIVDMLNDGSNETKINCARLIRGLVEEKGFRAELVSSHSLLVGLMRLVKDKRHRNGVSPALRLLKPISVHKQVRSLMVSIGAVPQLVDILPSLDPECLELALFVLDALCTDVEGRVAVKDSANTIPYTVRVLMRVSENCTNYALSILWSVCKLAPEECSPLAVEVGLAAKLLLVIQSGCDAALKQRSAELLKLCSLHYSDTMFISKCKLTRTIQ

T3: GST-PUB30 (Arabidopsis thaliana, UniProt Q058P4 1-448)
T3 construct: Plant U-box ubiquitin E3 ligase PUB30, Arabidopsis, full length
T3 sequence (looked up): T2 chain

T4: GST-PUB31 (Arabidopsis thaliana, UniProt Q9FHN9 1-444)
T4 construct: Plant U-box ubiquitin E3 ligase PUB31, Arabidopsis, full length
T4 sequence (looked up): T1 chain

B1: MBP-BAK1_CD (domain or fragment, Arabidopsis thaliana, UniProt Q94F62 247-615, looked up)
chain: AWWRRKKPQDHFFDVPAEEDPEVHLGQLKRFSLRELQVASDNFSNKNILGRGGFGKVYKGRLADGTLVAVKRLKEERTQGGELQFQTEVEMISMAVHRNLLRLRGFCMTPTERLLVYPYMANGSVASCLRERPESQPPLDWPKRQRIALGSARGLAYLHDHCDPKIIHRDVKAANILLDEEFEAVVGDFGLAKLMDYKDTHVTTAVRGTIGHIAPEYLSTGKSSEKTDVFGYGVMLLELITGQRAFDLARLANDDDVMLLDWVKGLLKEKKLEALVDVDLQGNYKDEEVEQLIQVALLCTQSSPMERPKMSEVVRMLEGDGLAERWEEWQKEEMFRQDFNYPTHHPAVSGWIIGDSTSQIENEYPSGPR
notes: BRI1-ASSOCIATED RECEPTOR KINASE1 (BAK1/SERK3), Arabidopsis; cytoplasmic domain
B2: MBP-ERECTA_CD (domain or fragment)
chain: CRPHNPPPFLDGSLDKPVTYSTPKLVILHMNMALHVYEDIMRMTENLSEKYIIGHGASSTVYKCVLKNCKPVAIKRLYSHNPQSMKQFETELEMLSSIKHRNLVSLQAYSLSHLGSLLFYDYLENGSLWDLLHGPTKKKTLDWDTRLKIAYGAAQGLAYLHHDCSPRIIHRDVKSSNILLDKDLEARLTDFGIAKSLCVSKSHTSTYVMGTIGYIDPEYARTSRLTEKSDVYSYGIVLLELLTRRKAVDDESNLHHLIMSKTGNNEVMEMADPDITSTCKDLGVVKKVFQLALLCTKRQPNDRPTMHQVTRVLGSFMLSEQPPAATDTSATLAGSCYVDEYANLKTPHSVNCSSMSASDAQLFLRFGQVISQNSE

Key:
GST-PUB31 [1] = target: T1, GST-PUB31; experiment: BLI
GST-PUB30 [2] = target: T2, GST-PUB30; experiment: BLI
GST-PUB30 [3] = target: T3, GST-PUB30; experiment: BLI; Octet Red96; GST-PUB30 or GST-PUB31 loaded on anti-GST probes (2000 nM for ERECTA_CD, 1000 nM for BAK1_CD); ERECTA_CD or BAK1_CD as analyte at seven concentrations; 30 °C; 1x PBS with 0.02 % Tween 20; 1:1 model, steady-state analysis; details: both partners purified
GST-PUB31 [4] = target: T4, GST-PUB31; experiment: as above; details: both partners purified
GST-PUB31 [5] = target: T1, GST-PUB31; experiment: BLI
GST-PUB30 [6] = target: T2, GST-PUB30; experiment: BLI

Row | Binder | Kd (GST-PUB31 [1]) | Kd (GST-PUB30 [2]) | fold stronger interaction than ERECTA_CD (GST-PUB30 [3]) | fold stronger interaction than ERECTA_CD (GST-PUB31 [4]) | Kd (GST-PUB31 [5]) | Kd (GST-PUB30 [6])
1 | B1 | 2 µM | 2.4 µM | ~10 fold | ~10 fold |  | 
2 | B2 |  |  |  |  | 11 µM | 15 µM
